From PMC5986701, “A quantitative characterization of interaction between prion protein with nucleic acids”

B1: NC-DNA (dsDNA)
DNA 1: GACTTGTGGAAAATCTCTAGCAGTGCAT
DNA 2: ATGCACTGCTAGAGATTTTCCACAAGTC
B2: Lef-DNA (dsDNA)
DNA 1: GAGCTTCAAAGGGTG
DNA 2: CACCCTTTGAAGCTC
B3: MNV (structured_RNA)
RNA: GGGUUCAUAGCCUAUUCGGCUUUUAAAGGACCUUUUUCCCUCGCGUAGCUAGCUACGCGAGGUGACCCCCCGAAGGGGGGUGCCCC
B4: RQ11+12 (structured_RNA)
RNA: GGGGUUUCCAACCGGAAUUUGAGGGAUGCCUAGGCAUCCCCCGUGCGUCCCUUUACGAGGGAUUGUCGACUCUAGUCGACGUCUGGGCGAAAAAUGUACGAGAGGACCUUUUCGGUACAGACGGUACCUGAGGGAUGCCUAGGCAUCCCCGCGCGCCGGUUUCGGACCUCCAGUGCGUGUUACCGCACUGUCGACCC
B5: RQT157 (RQ157) (structured_RNA)
RNA: GGGGUUUCGAACCGGAAUUUGAGGGAUGCCUAGGCAUCCCCCGUGCGUCCCUUUACGAGGGAUUGUCGACUCUAGAGGAUCCGGUACCUGAGGGAUGCCUAGGCAUCCCCGCGCGCCGGUUUCGGACCUCCAGUGCGUGUUACCGCACUGUCGACCC

target: T1, alpha-PrP (human recombinant prion protein) (human, UniProt P04156 23-230); experiment: fluorescence anisotropy; pH 5; details: not given

Row | Binder | Kd [µM]
1 | B1 | 1.11 ± 0.23
2 | B2 | 1.25 ± 0.32

same assay, conditions: pseudoknot

Row | Binder | Kd [µM]
3 | GCCUCAUGGUGGUGGCUGGGGGCAGCCUCAUGGUGGUGGCUGGGG (structured_RNA) [Hm45] | 2.9 ± 0.41
4 | GCCCCAUGGAGGUGGCUGGGGCCAGCCUCAUGGAGGUGGCUGGGGC (structured_RNA) [Cm47 (Cm48 in Table 2)] | 1.51 ± 0.35
5 | GUCAAGGACAAGGUCAAGGUCAAGGUUCUUUUACUGCUUUGGGC (structured_RNA) [Ym44] | 1.63 ± 0.4
6 | CAGGGUGGCACCUGGGGGCAGCCCCACGGUGGUGGCUG (structured_RNA) [Mm38] | 3.82 ± 0.4

target: T1, alpha-PrP (human recombinant prion …); experiment: fluorescence anisotropy; pH 7.2; details: not given

Row | Binder | Kd [µM]
7 | B1 | 1.29 ± 0.21
8 | B3 | 4.15 ± 0.61
9 | B2 | 5.73 ± 0.57
10 | B4 | 2.2 ± 1.5
11 | B5 | 2.89 ± 1.5

same assay, conditions: pseudoknot

Row | Binder | Kd [µM]
12 | GCCUCAUGGUGGUGGCUGGGGGCAGCCUCAUGGUGGUGGCUGGGG (structured_RNA) [Hm45] | 3.34 ± 0.15
13 | GCCCCAUGGAGGUGGCUGGGGCCAGCCUCAUGGAGGUGGCUGGGGC (structured_RNA) [Cm47 (Cm48 in Table 2)] | 1.61 ± 0.4
14 | GUCAAGGACAAGGUCAAGGUCAAGGUUCUUUUACUGCUUUGGGC (structured_RNA) [Ym44] | 1.79 ± 0.57
